# Results taken from a protein production outcome set (Wang et al. 2014).
# Assay: label from the status in PepcDB records
row,Sequence,protein production
1,MNGAVDLVIRFLLFAMLHSIAALPGVQQRIGNMFPRGFRFYRAAYNLAALVTFGWVMAAWPLSPVIYLVPGSASLAFHAVQAFTLLQMIRCVSRTGMADFLGIRHPSREDAAHELVTTGCYGTVRHPLYTLAMVFCLFNPLMTVKWLLFTLMAGGYFVMGAVVEERRLEREFGDAYRSYRRQVPMLIPRRRKPVAKE,failed
2,MFGLGGEAMIKTQVVKLKVNKTMQKHLDALCDYRRYCWNKGLETWQLMYEAHTLTTKDNPSPNERRVRDELVAGKADWQYDLSARCLQLAIKDLANAWKNFLDKAQPDWGKPRFKSKKAPRQGFKTDRAEIVNGKLRLDKPWSIAKDNWFDLASYEALKMRKVKIASIFKEKGLYYAALTYEENIPAKAKTHKKTAIDVNVGHFNYTDGLINVLPVRLQKLYKRIKHYQRMLARKREINGKLATKTNNYLAVRAKLQRDYRKVVNIQNDLLQKFTTRLVNDYDQIVIEDLAVKEMMMTHVASKGMQRSLFGKFRQILTYKCDWYNKELILASKMYPSTQRCAKCGYVKKGDEKITLQGNQKHGTKHNEYICYRCGYTNDRDENAVLNLLALAK,failed
3,MHSATIIIGIVCGWIFILTTVQFLYLLIIKRDLQPTGWCSFMEKDYLGISSTVLVSLLFGLALVLVNSWFNQPTVEEVVPRSTYLMVMIALFFIDTVAFIFMQLYFIYDRRQFSNCILSLAFLSCLIYFIKTVIIIQQIIEGRLTSSVVQNDIAIYYLFRQMSLCILIFLALVNKVSENTKQRNLFSKKMTLCISLFFVVGGPIVAHILSSHYESYNLHIAELTNENDQVVWKASYVTIMIFMWLTLLSVNLYFNGLRCDIWNGVTVIAFCAVLYNVSLLFMSRYSVSIWYISRTIEVVSKLTVMVIFMCHIFSALRVTKDIAHRDSLTNIFNRNYFFNELTVQSASAKKTPYCVMIMDIDHFKKVNDTWGHPVGDQVIKTVVSIIGKSIRPDDLFARVGGEEFGVLLTDIDTERAKALAERIRENVERLTGDNPEYAIPQKVTISIGAVVTQKNELNPKEIYQLADNALYEAKETGRNKVVVKEAEILINRKDDE,failed
4,IFLDSNMSLDVVWHVYSNMMSPEIEQFSNSVPKSPIRELLELEPETAKFGKPEKLADGRRVRVTVDVFCKGTFRGIGRNYRIAKCTAAKCALRQLKKQGLIAKKD,failed
5,MAKYQSMLVVIDPNQDDQPALRRAVYLHQRIGGRIKAFLPIYDFSYEMTTLLSPDERTAMRQGVIAQRTAWIREQAKFYLESGVPIDVKVVWHNRPFEAIIQEVVSEKHDLLLKMAHQHDKLEAVIFTPTDWHLLRKCPCPVWMVKDQPWPEGGKALVAVNLASEENYHNTLNEKLVRETLSLAEEVNHTEVHLIGAYPVTPINIAIELPDFDPSVYNDAIRGQHLLAMKALRQKFGIDEKFTHVEKGLPEEVIPDLAEHLQAGIVVLGTVGRTGLSAAFLGNTAEQVVDHLRCDLLVLKPEAYQTPVELDDDDDD,failed
6,MSSVSEVNVDIKDFLMSINLEQYLLHFHESGFTTVKDCAAINDSLLQKIGISPTGHRRRILKQLQIILSKMQDIPIYA,not failed
7,MGKDGLSDDQVSSMKEAFMLFDTDGDGKIAPSELGILMRSLGGNPTQAQLKSIIASENLSSPFDFNRFLDLMAKHLKTEPFDRQLRDAFKVLDKEGTGFVAVADLRHILTSIGEKLEPNEFDEWIKEVDVGSDGKIRYEDFIARMVAK,failed
8,MNIIMNINSKAKGFVCGAVAAATYGMNPLFTLPLYKEGMSVDSVLFYRYGFAVLILGILMKVQGQSFALKKNEVLPLIVGGLLFSASSLLLFLSYKHMDAGIASTILFVYPVMVALIMFLFFHEKVSLLTVFCILLALSGIGLLYKGEGGETLSLVGMLLVILSSLSYAVYIVGVNHSTLKLMSTAKLTFYALLFGLSIYIVRLNFCSDLQAVPSLPAWGNILAMAFLPTVISLVCTAVSIHTIGSTSTAILGALEPVTALFFGVMIFGERLTPRLMLGILMILVAVTFIVVGKPLMTFLKEEVAGGMKRKLTR,failed
9,MDALLGPPESSWEGADRSDADLRWARGGREARDRRDQLLPALHALNDRVGWISEGALDYVCRRLTVPPAEAYGVATFYAMFSVRPRPATVLHVCTDLACTAAGASRLCAAVESRLGPESGVKLERSPCLGLCERAPATLVIRAGESARPAQEDTPARPAFEDEAVQAEGGSGGAAPGDGGGTSRSSEAESGGGKGRRGRNTLHATAICAPATPDRAIAAATAPESAPTEPAPEAAVPQAGDPTLTLLHRIGTTDPTSLDDYRAHGGYTALRRAFALGPAAVIREVTDAGLVGRGGAAFPTGRKWQATAAQPDHPHYLVCNADESEPGTFKDRVLMEGDPYALVEAMTIAAYATGAHRGYLYLRGEYPRALARLTHAIEQARTRGLLGDDVLGQGYAFDIEIRRGAGAYICGEETALFNSIEGRRGEPRSKPPFPVEKGLFGKPTVENNVETLVNVLPILTMGAEAYAAIGTPTSTGPKLFCVSGTVARPGVYELPFGATLGELLALAGVRDNLRAVLLGGAAGGFVRPDELDIPLTFEGTREAGTTLGSGVVMAFDDTVPLPRLLLRIAEFFRDESCGQCVPCRVGTVRQEEALHRIADRTGAAAADDIALLREVGRAMRDASICGLGQTAWNAVESAIDRLGAYE,failed
10,MNYAFVVQARLGSTRLPGKILKPFYGNQSILDLMVHKLSAISNIPVIIATTNSVINEPIEKKALALGVKCFRGEENDVLKRFIDVAEYFDIQGIFRICSDNPFLDVHAARQLVEIAMKSCNDYISFDIDGTPSIKTHFGFWGEFVTLDALKRVIGFTDDLLYREHVTNYIYSHPELFNIQWISGSPVVSKHHNIRLTIDTLEDFSVAQRIYRDLQEKRVEISIEVIVDYVRRHAEYIQLMKQQIKKNSKLEHHHHHH,not failed
11,MPHGVEVEPGVAKLTTYASKQATDMGAIYVNSKGDRIVNESNVYTTFRNAILKQADKVAYLVMDERTWKKVYDLLILHDFTPEEIKSFFENKGKRPVFVKGSLESAAEQAGIVVDELVQTVKNYQGYVQDGHDHDFGRDPKYLHQFEGETFYIIEQRLEHHHHHH,not failed
12,MKSVFHLWRSHMRHLNDMALFVEVARARSFRKAAEALGMPNSTLSRRVSELEKAIGLRLLHRTTRKIELTEAGQLYYERSKRIVDEARLAHEQLGAMLNQPSGVLRVSLPVNLATFYLTPIIGEFARHYPGITFEFDLTPRRVDLVAEPFDVAIRIGKLEDSGLITRLIGRHSRHLYASPGYIEASGEPATPAELAEHECIGMLRSPIWSLHQGINKVDVAVRGRFTLNSVGMIRALAVNHQGIALLPEKIVAEDVAFGRLRRILPEWQGSAVSIFAVTETRLIPAKTQRFIEFLSSRLMEA,failed
13,MNYEIIDCIDSGTEYCPCHLAESGNCILCSQLNGKDFCDCVNWKGVCIYQEYTWNHNKAKKERSECICKIIKREEIDNNLIVLTIFIRKKLAEDLLYPGSYVFLRPTKSSRYYSSPISIMEASSDENIIKVIIEVKGIKTKSINELKEKDDIVLKGPYWNGVLGLKNIHSAKEGISLIIARGIGEAPIVPIMKKLYSNGNKVVVIADRGKFKANLIDKYLEEFSSETYNFNTLNKDGELPEDFKDFLLNFIRYNKVNLIHISGPNILTSKILDVVDEDIKISCSNNAKMCCGEGICGACSNIYDDDKMKRMCKVQIDPRYLFKGLRSI,failed
14,MQKVEGIIFDMDGVLFDSERISLEFWMETFEKYGYTMTKEIYTSVMGRNRKGIIEGLTDIYDSSVPIIDLYDEKTKNMIEFMERKGAPIKLGVNELISFLKENGYKMAVATSTKRERAVKRLAKANLKDYFDAIVCGDDVVNSKPNPEIFLKAAKKINVNPKNCIVIEDSPMGVEAAYNGGIRCINVPDLKEPDEQIKSQSHKILENLLEVREYLKSLNSKECHNL,failed
15,MIVKEDSVEAVGAQLKVYHQQYQDKSREYDQLYEEYTRTSQELQMKRTAIEAFNETIKIFEEQGQTQEKCSKEYLERFRREGNEKEMQRILLNSERLKSRIAEIHESRTKLEQQLRAQASDNREIDKRMNSLKPDLMQLRKIRDQYLVWLTQKGARQKKINEWLGIKNETEDQYALMEDLEHHHHHH,failed
16,MPMKSWIKTLLITLLAAALCLLFARVVLPPLLVQLIPPSWEGGPWFWVNLLLAGFLAGLVVAPLLRTRRYYPVPLLLLLSVLVVVGNWAQNRCNDAQLQAIEQLERRSASHSNLGISNEEPAPSAPVDVSATPGVWAHEQGDGYGYSCNRPGETQGFLMPQLMSFGINVLGLLLALLIGPGRRRAR,failed
